In patent US20230235011A1 (BEIJING BEYOND BIOTECHNOLOGY, published 2023) one finds Kd, koff and kon data, which are given here for 2 molecules.

For one test, the target named is T1, GPC-3 protein (UniProt P51654 25-559, limits assumed).
T1 construct: Bought antigen, used as the SPR analyte; also called Glypican-3
Description: SPR (Biacore T100, 25 C); binder captured on anti-human IgG CM5 chip, GPC-3 protein as analyte. Background: Surface plasmon resonance follows binding to a sensor surface in real time, without labels.

Another test has as its target T2, trop-2 protein (UniProt P09758 27-274, limits assumed).
T2 construct: Bought antigen, used as the SPR analyte; The printed catalogue number is doubtful
T2 sequence (looked up): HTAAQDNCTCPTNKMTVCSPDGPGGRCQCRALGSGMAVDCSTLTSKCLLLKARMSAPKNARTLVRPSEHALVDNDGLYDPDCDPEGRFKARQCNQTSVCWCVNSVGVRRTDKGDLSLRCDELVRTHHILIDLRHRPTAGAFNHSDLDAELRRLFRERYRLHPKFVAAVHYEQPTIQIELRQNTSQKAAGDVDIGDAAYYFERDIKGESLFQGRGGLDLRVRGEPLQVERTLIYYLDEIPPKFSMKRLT
The test can be described thus: SPR (Biacore T100, 25 C); binder captured on anti-human IgG CM5 chip, trop-2 protein as analyte.

T1 sequence (P51654 25-559 limits assumed): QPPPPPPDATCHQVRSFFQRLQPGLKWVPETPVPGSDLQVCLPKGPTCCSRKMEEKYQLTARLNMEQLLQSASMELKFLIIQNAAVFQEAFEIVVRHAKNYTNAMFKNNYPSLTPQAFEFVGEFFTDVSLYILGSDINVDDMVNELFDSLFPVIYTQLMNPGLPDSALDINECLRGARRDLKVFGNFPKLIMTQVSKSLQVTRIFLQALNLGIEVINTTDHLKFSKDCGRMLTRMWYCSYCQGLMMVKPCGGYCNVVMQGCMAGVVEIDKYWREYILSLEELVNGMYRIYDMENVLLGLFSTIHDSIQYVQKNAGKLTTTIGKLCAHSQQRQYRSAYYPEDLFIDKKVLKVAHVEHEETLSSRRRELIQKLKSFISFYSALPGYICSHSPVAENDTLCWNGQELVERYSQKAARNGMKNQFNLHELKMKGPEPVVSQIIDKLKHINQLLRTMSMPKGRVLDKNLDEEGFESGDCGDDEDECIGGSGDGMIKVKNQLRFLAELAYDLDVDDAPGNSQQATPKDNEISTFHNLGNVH

B1: anti-GPC-3 antibody BY20.2 (codrituzumab) (antibody, human IgG1, kappa, V domains shown)
VH: QVQLVQSGAEVKKPGASVKVSCKASGYTFTDYEMHWVRQAPGQGLEWMGALDPKTGDTAYSQKFKGRVTLTADKSTSTAYMELSSLTSEDTAVYYCTRFYSYTYWGQGTLVTVSS
VL: DVVMTQSPLSLPVTPGEPASISCRSSQSLVHSNRNTYLHWYLQKPGQSPQLLIYKVSNRFSGVPDRFSGSGSGTDFTLKISRVEAEDVGVYYCSQNTHVPPTFGQGTKLEIKR
notes: Made in-house from INN 9759; If the listing has 19, the mature range is 20-238; also called control antibody BY20.2
As to B1, in the test with GPC-3 protein, the affinity, expressed as Kd, was 2.08 nM; the koff (commonly the first-order rate constant of dissociation) came to 7.57e-05 s⁻¹; the kon (usually the second-order rate constant of association) stood at 36400 M⁻¹ s⁻¹.

B2: anti-trop-2 antibody BY43 (sacituzumab) (antibody, human IgG1, kappa, V domains shown)
VH: QVQLQQSGSELKKPGASVKVSCKASGYTFTNYGMNWVKQAPGQGLKWMGWINTYTGEPTYTDDFKGRFAFSLDTSVSTAYLQISSLKADDTAVYFCARGGFGSSYWYFDVWGQGSLVTVSS
VL: DIQLTQSPSSLSASVGDRVSITCKASQDVSIAVAWYQQKPGKAPKLLIYSASYRYTGVPDRFSGSGSGTDFTLTISSLQPEDFAVYYCQQHYITPLTFGAGTKVEIKR
notes: Made in-house from INN 10418; also called control antibody BY43
As for B2, in the test with trop-2 protein, the equilibrium dissociation constant (Kd) (usually the equilibrium constant for the complex coming apart) was determined as 0.857 nM, the koff worked out at 4.82e-05 s⁻¹ and the kon came to 56300 M⁻¹ s⁻¹.
